Like-named read-outs stand apart in the source and are kept apart here.
T1: soluble cynomolgus TNFR2 (cynomolgus, UniProt A0A2K5VET2 132-366)
T1 sequence: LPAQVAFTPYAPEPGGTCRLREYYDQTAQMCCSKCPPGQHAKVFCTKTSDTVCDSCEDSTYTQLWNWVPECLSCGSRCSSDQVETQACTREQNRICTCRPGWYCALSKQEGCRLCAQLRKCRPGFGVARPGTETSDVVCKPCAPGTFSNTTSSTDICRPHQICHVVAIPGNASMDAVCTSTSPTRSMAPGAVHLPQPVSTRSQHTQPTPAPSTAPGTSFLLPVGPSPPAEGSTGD

T2: monomeric human TNFR2 extracellular domain (human, UniProt P20333 23-257)
T2 construct: extracellular domain; Analyte in the Octet experiments; also called human TNFR2 ECD
T2 sequence (looked up): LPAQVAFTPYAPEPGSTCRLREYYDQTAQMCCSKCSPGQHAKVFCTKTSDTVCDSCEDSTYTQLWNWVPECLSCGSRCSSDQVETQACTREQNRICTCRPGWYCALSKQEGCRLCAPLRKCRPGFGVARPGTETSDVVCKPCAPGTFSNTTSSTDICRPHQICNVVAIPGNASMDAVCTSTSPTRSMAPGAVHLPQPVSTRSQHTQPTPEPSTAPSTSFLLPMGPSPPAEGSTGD

T3: soluble human TNFR2 (human, UniProt P20333 23-257)
T3 construct: also called soluble TNFR2
T3 sequence (looked up): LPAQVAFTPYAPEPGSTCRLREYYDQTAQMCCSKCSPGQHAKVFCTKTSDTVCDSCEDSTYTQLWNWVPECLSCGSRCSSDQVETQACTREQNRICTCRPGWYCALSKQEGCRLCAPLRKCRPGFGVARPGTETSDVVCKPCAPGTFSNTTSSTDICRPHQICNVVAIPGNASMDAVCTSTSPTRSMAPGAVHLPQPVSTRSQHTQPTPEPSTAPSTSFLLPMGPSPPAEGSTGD

T4: monomeric cynomolgus TNFR2 extracellular domain (cynomolgus monkey, UniProt A0A2K5VET2 132-366)
T4 construct: extracellular domain; Analyte in the Octet experiments; also called cynomolgus TNFR2 ECD; Cyno TNFR2
T4 sequence: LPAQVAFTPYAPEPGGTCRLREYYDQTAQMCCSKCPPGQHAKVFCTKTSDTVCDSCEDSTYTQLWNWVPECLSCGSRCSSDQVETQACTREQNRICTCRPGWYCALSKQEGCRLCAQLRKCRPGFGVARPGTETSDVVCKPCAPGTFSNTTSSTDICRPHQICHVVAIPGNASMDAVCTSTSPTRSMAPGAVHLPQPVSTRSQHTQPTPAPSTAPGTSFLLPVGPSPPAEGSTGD


Experiments:
soluble cynomolgus TNFR2 [1] = target: T1, soluble cynomolgus TNFR2; experiment: competition ELISA: plate-bound soluble cynomolgus TNFR2, competitor biotinylated TNFα, streptavidin-HRP, A450
Method: (§1) Soluble human TNFR2 (Sino Biological, 10417-H08H) or cynomolgus TNFR2 (Sino Biological, 90102-C08H) was coated on Nunc-Immuno™ plates at 0.1 μg/ml, 0.5 ug/ml, 1 μg/ml, and 5 μg/ml. […] Plates were developed using TMB and stopped with 3 M HCl.

[2] = target: T2, monomeric human TNFR2 extracellular …; experiment: BLI (Octet Red 96), Human TNFR2 Kd (1-1)
soluble human TNFR2 [3] = target: T3, soluble human TNFR2; experiment: competition ELISA (FIG. 2), plate-bound soluble human TNFR2, constant biotinylated TNFα as competitor
From the text: (§2) Soluble human TNFR2 was coated on Nunc-Immuno™ plates. […] IC₅₀ values are reported in nM.

soluble human TNFR2 [4] = target: T3, soluble human TNFR2; experiment: competition ELISA: plate-bound soluble human TNFR2, competitor biotinylated TNFα; IC50 relative to unlabelled TNFα = 1.00
Method: as §1

soluble human TNFR2 [5] = target: T3, soluble human TNFR2; experiment: competition ELISA: plate-bound soluble human TNFR2, competitor biotinylated TNFα, streptavidin-HRP, A450
Method: as §1

soluble human TNFR2 [6] = target: T3, soluble human TNFR2; experiment: competition ELISA (FIG. 1), plate-bound soluble human TNFR2, constant biotinylated TNFα as competitor
From the text: as §2

soluble cynomolgus TNFR2 [7] = target: T1, soluble cynomolgus TNFR2; experiment: competition ELISA: plate-bound soluble cynomolgus TNFR2, competitor biotinylated TNFα; IC50 relative to unlabelled TNFα = 1.00
Method: as §1
(§3) IC₅₀ values are reported in nM.

soluble human TNFR2 [8] = target: T3, soluble human TNFR2; experiment: competition ELISA: plate-bound soluble human TNFR2, competitor biotinylated TNFα, streptavidin-HRP, A450; remark: listed apart in the source
Method: as §1

soluble human TNFR2 [9] = target: T3, soluble human TNFR2; experiment: competition ELISA: plate-bound soluble human TNFR2, competitor biotinylated TNFα; IC50 relative to unlabelled TNFα = 1.00; remark: listed apart in the source
Method: as §1, §3

soluble human TNFR2 [10] = target: T3, soluble human TNFR2; experiment: competition ELISA, plate-bound soluble human TNFR2, biotinylated TNFα as competitor
Method: as §1, §3

soluble cynomolgus TNFR2 [11] = target: T1, soluble cynomolgus TNFR2; experiment: competition ELISA: plate-bound soluble cynomolgus TNFR2, competitor biotinylated TNFα, streptavidin-HRP, A450; remark: listed apart in the source
Method: as §1

soluble cynomolgus TNFR2 [12] = target: T1, soluble cynomolgus TNFR2; experiment: competition ELISA, plate-bound soluble cynomolgus TNFR2, biotinylated TNFα as competitor
Method: as §1, §3

soluble cynomolgus TNFR2 [13] = target: T1, soluble cynomolgus TNFR2; experiment: competition ELISA: plate-bound soluble cynomolgus TNFR2, competitor biotinylated TNFα; IC50 relative to unlabelled TNFα = 1.00; remark: listed apart in the source
Method: as §1

[14] = target: T2, monomeric human TNFR2 extracellular …; experiment: BLI (Octet Red 96), antibody captured on Fc biosensor, monomeric TNFR2 ECD in solution, 1:1 model
Method: (§4) Analysis of binding to the human and cynomolgus TNFR2 ECD was performed using an Octet Red 96 Instrument™ (ForteBio). […] The experiments were performed using five steps: (1) baseline acquisition (60 s); (2) antibody loading on to anti-human or anti-mouse Fc biosensors (120 s); (3) second baseline acquisition (60 s); (4) association of interacting monomeric human or cynomolgus TNFR2 ECD protein for kₒₙ measurement (120 s); and (5) dissociation of interacting monomeric human or cynomolgus TNFR2 ECD for koff measurement (240-3600 s).
(§5) The interacting monomeric human or cynomolgus ECD was used at 5-6 concentrations of a 3-fold concentration series. The data were analyzed using Octet Data Analysis Software 9.0™ (ForteBio) and fit to the 1:1 binding model. The equilibrium dissociation constants (Kd) were calculated by the ratio of […].

[15] = target: T4, monomeric cynomolgus TNFR2 …; experiment: as above
Method: as §4, §5

soluble human TNFR2 [16] = target: T3, soluble human TNFR2; experiment: competition ELISA: plate-bound soluble TNFR2, antibody titrated against constant biotinylated TNFα, streptavidin-HRP, A450
From the text: as §2, §3

Row | IC50 (soluble cynomolgus TNFR2 [1]) [nM] | Kd [2] [nM] | IC50 (soluble human TNFR2 [3]) [nM] | Relative IC50 (soluble human TNFR2 [4]) [nM] | IC50 (soluble human TNFR2 [5]) [nM] | IC50 (soluble human TNFR2 [6]) [nM] | Relative IC50 (soluble cynomolgus TNFR2 [7]) [nM] | IC50 (soluble human TNFR2 [8]) [nM] | Relative IC50 (soluble human TNFR2 [9]) [nM] | Average Relative IC50 (soluble human TNFR2 [10]) [nM] | IC50 (soluble cynomolgus TNFR2 [11]) [nM] | Average Relative IC50 (soluble cynomolgus TNFR2 [12]) | Relative IC50 (soluble cynomolgus TNFR2 [13]) [nM] | Kd [14] [nM] | Kd [15] [nM] | IC50 (soluble human TNFR2 [16]) [nM] | Binder
1 | 8 | 1.3 | 5.08 | 2.33 | 12.1 | 5.12 | 2.04 | 5.77 | 2.17 | 2.19 | 19.6 | 1.98 | 2.13 | 1.3 | 0.44 | – | SBT-002 (antibody, V domains shown, Parental mouse antibody; also called mouse SBT-002) VH: QVTLKESGPGILQPSQTLSLTCSFSGFSLSTSGMGVGWIRQPSGKGLEWLAHIWWDDDKFYNPSLKSQLTISKDTSRNQVFLKLTSVVTADTATYYCARLTGTRYFDYWGQGTTLTVSS VL: DVQMTQSPSSLSASLGGKVTITCKASQDINKFIAWYQHKPGKGPRLLIHYTSTLQPGIPSKFSGSGSGRDYSFSISNLEPEDIATYYCLQYGNLWTFGGGTKLEIT
2 | – | 1.2 | 10.5 | – | – | – | – | – | – | – | – | – | – | 1.2 | – | 8.5 | SBT-003 (antibody, V domains shown, Parental mouse antibody; also called mouse SBT-003) VH: QIQLVQSGPELKKPGETVKISCKASGYTFTDYSMHWVKQAPGKGLKWMGWINTETGEPTYADDFKGRFAFSSETSTSTAYLQINNLKNDDTTTYFCATYYGSSYVPDYWGQGTSLTVSS VL: DIVMTQSHKFMSTSVGDRVSITCKASQNVGTAVAWYQHKPGQSPKLLIYWTSSRHTGVPDRFTGSGSGTEFTLTISNVQSEDLADYFCHQYSDYPYTFGGGTKLEIK
